Measured values published in patent US20230348569A1.

Biological target: SARS-CoV-2 spike protein variant V376F on VSV pseudoparticles (SARS-CoV-2) (UniProt P0DTC2)
Experiment: cell-based or functional assay

Question: How did the Neutralization IC50 turn out when mAb10987 (antibody) was run?
Answer: Its Neutralization IC50 is 17.8 pM.
